In paper PMC11842806, “Molecular basis of foreign DNA recognition by BREX anti-phage immunity system” (Nature Communications, 2025):

T1: BrxX G785T/N823S (TRD variant) (Escherichia coli HS, UniProt P0DUF9 1-1205, G785T;N823S)
T1 sequence: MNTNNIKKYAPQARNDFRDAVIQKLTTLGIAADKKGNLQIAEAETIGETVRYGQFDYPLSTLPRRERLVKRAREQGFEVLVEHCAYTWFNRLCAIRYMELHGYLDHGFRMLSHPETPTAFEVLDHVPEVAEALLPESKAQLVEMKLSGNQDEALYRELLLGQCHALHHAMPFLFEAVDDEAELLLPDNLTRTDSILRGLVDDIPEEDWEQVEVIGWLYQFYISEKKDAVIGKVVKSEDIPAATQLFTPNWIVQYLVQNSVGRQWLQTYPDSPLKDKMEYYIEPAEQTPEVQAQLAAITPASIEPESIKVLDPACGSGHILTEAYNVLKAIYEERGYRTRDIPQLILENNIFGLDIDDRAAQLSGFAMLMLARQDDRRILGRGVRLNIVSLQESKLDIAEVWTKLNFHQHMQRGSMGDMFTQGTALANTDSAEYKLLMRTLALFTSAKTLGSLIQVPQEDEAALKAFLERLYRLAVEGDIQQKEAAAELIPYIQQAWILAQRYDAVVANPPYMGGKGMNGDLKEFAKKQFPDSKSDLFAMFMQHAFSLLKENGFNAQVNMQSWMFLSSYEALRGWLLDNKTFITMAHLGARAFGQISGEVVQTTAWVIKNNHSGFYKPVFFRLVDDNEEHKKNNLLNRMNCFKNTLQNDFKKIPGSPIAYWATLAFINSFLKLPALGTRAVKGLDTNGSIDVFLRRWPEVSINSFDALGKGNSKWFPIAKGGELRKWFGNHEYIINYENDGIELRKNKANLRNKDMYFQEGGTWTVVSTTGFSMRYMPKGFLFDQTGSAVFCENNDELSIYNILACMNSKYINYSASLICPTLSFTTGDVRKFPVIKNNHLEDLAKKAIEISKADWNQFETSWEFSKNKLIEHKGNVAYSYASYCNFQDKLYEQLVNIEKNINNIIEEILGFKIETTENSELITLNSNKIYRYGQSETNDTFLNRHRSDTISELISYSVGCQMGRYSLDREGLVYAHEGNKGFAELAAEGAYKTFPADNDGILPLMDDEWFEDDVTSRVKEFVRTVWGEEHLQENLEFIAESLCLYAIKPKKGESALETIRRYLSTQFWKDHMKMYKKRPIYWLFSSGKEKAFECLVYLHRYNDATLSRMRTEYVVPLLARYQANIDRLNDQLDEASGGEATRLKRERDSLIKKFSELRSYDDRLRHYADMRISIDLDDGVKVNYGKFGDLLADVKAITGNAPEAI

B1: 40 bp BREX (dsDNA)
DNA 1: TCAGTAGTCAAGTCAGTGGTAAGGTCAGGACAGGAGTCAG
DNA 2: CTGACTCCTGTCCTGACCTTACCACTGACTTGACTACTGA
B2: 40 bp BREX 4C (dsDNA)
DNA 1: TCAGTAGTCAAGTCAGTGGTCAGGTCAGGACAGGAGTCAG
DNA 2: CTGACTCCTGTCCTGACCTGACCACTGACTTGACTACTGA
B3: 40 bp BREX 4T (dsDNA)
DNA 1: TCAGTAGTCAAGTCAGTGGTTAGGTCAGGACAGGAGTCAG
DNA 2: CTGACTCCTGTCCTGACCTAACCACTGACTTGACTACTGA
B4: 40 bp BREX 4G (dsDNA)
DNA 1: TCAGTAGTCAAGTCAGTGGTGAGGTCAGGACAGGAGTCAG
DNA 2: CTGACTCCTGTCCTGACCTCACCACTGACTTGACTACTGA

target: T1, BrxX G785T/N823S (TRD variant); experiment: EMSA; decreased affinity; EMSA: 20 nM Cy5-DNA, 0.5x TBE pH 8.0, 35 mM NaCl, 5% glycerol, +/-0.5 mM SAM or SAH, 30 min, room temperature; BLI: 20 mM Tris-HCl pH 8.0, 100 mM NaCl, 0.05 mg/mL BSA, 0.02% Tween-20, +/-0.5 mM SAM, 30 C; conditions: protein: recombinant; tags: N-His6; label: 5'-Cy5 on strand 1; blunt

| Binder | binding result |
| --- | --- |
| B1 | binds |
| B2 | binds |
| B3 | binds |
| B4 | binds |
